The target in test [1] is WT sACE2_(2)-IgG1 (human) (UniProt Q9BYF1). Kind of test: BLI. Background: BLI is a label-free optical method that tracks binding on a fibre tip over time.
Test [2] deals with sACE2_(2).v2.4-IgG1 (human) (UniProt Q9BYF1). Kind of test: BLI.

The values below come from PMC7888922.

What is called Kd is a measure of binding affinity in units of concentration. Low readings indicate a tighter complex, high ones a looser complex. As a reminder, the koff is the first-order rate constant of dissociation. Low readings indicate slow dissociation, high ones fast dissociation. By kon is commonly meant the second-order rate constant of association. Low values mean slower complex formation, high ones faster complex formation.

In test [1], RsSHC014 RBD-8h (domain or fragment) gave a Kd of 29 nM, a koff of 0.026 s⁻¹ and a kon of 880000 M⁻¹ s⁻¹. Besides, in test [2], the Kd was 1.3 nM, the koff stood at 0.002 s⁻¹ and the kon was 1.6e+06 M⁻¹ s⁻¹.

With “SARS-CoV-2 RBD-8h (from UniProt P0DTC2 333-529) (domain or fragment)”, in test [2], the Kd stood at 0.4 nM, the koff was determined as 0.00028 s⁻¹ and the kon was found to be 660000 M⁻¹ s⁻¹.
